Source: patent publication US20200325214A1

How the values were obtained:
[1] = target: cynomolgus serum albumin (cynomolgus) (UniProt A2V9Z4); test: SPR, scDb, pH 5.5
[2] = target: human serum albumin (human) (UniProt P02768); test: SPR, scDb, pH 5.5
[3] = target: cynomolgus serum albumin (cynomolgus) (UniProt A2V9Z4); test: SPR, scDb, pH 7.4
[4] = target: human serum albumin (human) (UniProt P02768); test: SPR, scDb, pH 7.4

Kd [1] | koff [1] | kon [1] | Kd [2] | koff [2] | kon [2] | koff [3] | kon [3] | Kd [4] | koff [4] | kon [4] | Binder
4.82 nM | 0.000373 s⁻¹ | 77600 M⁻¹ s⁻¹ | 2.3 nM | 0.000173 s⁻¹ | 75000 M⁻¹ s⁻¹ | 0.000549 s⁻¹ | 57000 M⁻¹ s⁻¹ | 3.36 nM | 0.000235 s⁻¹ | 70100 M⁻¹ s⁻¹ | PRO480 (bispecific antibody, part only; not given: second specificity domains and linkers, V domains shown, not shown: another chain or arm of the molecule) VL: DVVMTQSPSSLSASVGDRVTITCQASQIISSRSAWYQQKPGQPPKLLIYQASKLASGVPSRFSGSGSGTDFTLTISSLQPEDFATYYCQCTYIDSNFGAFGGGTKLTVLG VH: EVQLVESGGGLVQPGGSLRLSCAASGFSFSSSYWICWVRQAPGKGLEWVGCVFTGDGTTYYASWAKGRFTISRDNSKNTVYLQMNSLRAEDTATYFCARPVSVYYYGMDLWGQGTLVTVSS
0.175 nM | 0.000175 s⁻¹ | 1e+06 M⁻¹ s⁻¹ | 0.371 nM | 0.000333 s⁻¹ | 897000 M⁻¹ s⁻¹ | 0.000221 s⁻¹ | 630000 M⁻¹ s⁻¹ | 0.728 nM | 0.000345 s⁻¹ | 474000 M⁻¹ s⁻¹ | PRO462 (bispecific antibody, part only; not given: second specificity domains and linkers, V domains shown, not shown: another chain or arm of the molecule) VL: DIQMTQSPSSLSASVGDRVTITCQSSESVYSNNQLSWYQQKPGQPPKLLIYDASDLASGVPSRFSGSGSGTDFTLTISSLQPEDFATYYCAGGFSSSSDTAFGGGTKLTVLG VH: EVQLVESGGGLVQPGGSLRLSCAASGFSLSSNAMGWVRQAPGKGLEYIGIISVGGFTYYASWAKGRFTISRDNSKNTVYLQMNSLRAEDTATYFCARDRHGGDSSGAFYLWGQGTLVTVSS
